Among the data in patent US20240294945 are activity values, retold here.

A value given as a limit tells only on which side of the number the result lay.

Common to all, as to experiment: cell_activity
In data set [1] the test system is ATP6 (lettuce) mt-DdCBE right (synthetic). The note with it: pair, lettuce protoplasts; first printed repeat NG vs G in site.
Data set [2] relates to 16S rDNA cp-DdCBE left (synthetic). The note with it: pair, mRNA in lettuce protoplasts.
In data set [3] the target is ND4 TALE-TadA* (synthetic) (UniProt P14727). Particulars: A-to-G editing.
Data set [4] concerns the target mDdCBE ND4 TALE-GSVG DddAtox (synthetic) (UniProt P14727). Particulars: monomeric full-length DddAtox.
The target in data set [5] is mDdCBE ND4 TALE-E1347A DddAtox (synthetic) (UniProt P14727). Particulars: monomeric full-length DddAtox.
The test system of data set [6] is ATP6 mt-DdCBE left (synthetic).
Data set [7] has as its system 16S rDNA cp-DdCBE right (synthetic). The note with it: pair, mRNA in lettuce protoplasts.
Data set [8] deals with mouse ND5 silent DdCBE right (synthetic). Particulars: pair, NIH3T3.

“GAAAAAATGAAGCCCA (double strand) [ATP6 lettuce right TALE site]” came in with an activity in data set [1] of 23%.
Take “GGGGAGTACGTTCGCAAG (double strand) [16S rDNA left TALE site]”: in data set [2], the activity is less than 25%.
Take ND4 TALE target: the activity in data set [3] is less than 0.6%; in data set [4] it was less than 31%; in data set [5], less than 7.2%.
“TATTGGCATTACTATAG (double strand) [ATP6 left TALE site]” registered an activity in data set [6] of 23%.
Substance “TGTGCGGGCCCCCGTCAA (double strand) [16S rDNA right TALE site]” displayed an activity in data set [7] of less than 25%.
As for “TTAAAATAAAGTTATTATT (double strand) [ND5 silent right TALE site]”, the activity in data set [8] is less than 19%.
